Data on eight compounds can be found in patent publication US20230346948A1, “Lipid conjugated peptide inhibitors of PICK1” (University of Copenhagen, priority 2020, published 2023).

For data set [1], the system named is diabetic neuropathy (STZ model). The settings on record: 5MPK, at +2 h. The protocol:
Diabetic neuropathy (STZ) model. Diabetes is induced by a single IP injection of […]. Streptozocin solution (100 μl/10 g, Sigma-aldrich S0130, batch #WXBB7152V). Glycemia is tested before, and 7 days after injection.
The mechanical threshold response of the operated mice was measured with calibrated von Frey filaments (“up/down” method) and the 50% threshold (g) was calculated. The experimenter was blinded to mice treatment. […] Compounds were diluted in PBS (vehicle) and administered s.c. at 10 μL/g, in doses as indicated (gabapentine, 5MPK). Statistical analysis was performed using GraphPad Prism 6.0.

Data set [2] is described as follows: Plasma exposure of biotinylated peptide after s.c. injection, ELISA. It is filed as in vivo, mice. The settings on record: male, C57bl6N, mouse, sc, s.c. 10 μmol/kg, read-out: time of peak plasma concentration (converted). The method, then:
Blood sample collection. Biotinylated TAT-di-PEG4-DATC5 (biot-TPD5; 34 mg/kg=[…]) or Biotinylated myr-di-PEG4-DATC5 (biot-mPD5; […]) diluted in 0.9% NaCl was injected s.c in 8 weeks old male C57bl6N mice (18 mice in total) once, and blood samples were collected after 15 min, 30 min, 1 h, 2 h and 6 h (blood samples from 6 mice per timepoint) using Aprotinine-containing BD Vacutainer®K3EDTA tubes (BD Diagnostics). The blood samples were centrifuged at 3500 RPM for 15 min at 4° C. and the plasma was collected in new tubes and freezed down at −20° C.
ELISA. A 96 well NUNC IMMOBILIZER (Cat. No. 436006) plate was coated with 15 μg/mL […] (Sigma-Aldrich, Product no. A8549) diluted in 100 mM sodium carbonate buffer (pH 9.6) and incubated for 2 h at room temperature on shaker. After incubation the plate was washed with PBS-T (1× phosphate buffered saline with 0.1% TWEEN® 20 (Sigma-Aldrich)) 3×, 1 washing step overnight at room temperature on shaker. […] The plate was read at 450 nm (and 570 nm) on a Wallac VICTOR2 1420 Multilabel Counter from PerkinElmer (Hvidovre, Denmark). The measured absorbance was calibrated to a standard curve generated from standard dilutions of biot-TPD5.
A general note: In an ELISA, binding on a coated surface is turned into a signal by an enzyme label.

For the next data set, the target named is T1, purified PICK1 (Rattus norvegicus, UniProt Q9EP80).
T1 construct: Full length rat PICK1 (pET41) was prepared as described earlier; inferred from pET41 vector and Glutathione-Sepharose capture) (N, cleaved yes); made in house; host or cells: E. coli BL21-DE3-pLysS
T1 sequence (Q9EP80 whole entry): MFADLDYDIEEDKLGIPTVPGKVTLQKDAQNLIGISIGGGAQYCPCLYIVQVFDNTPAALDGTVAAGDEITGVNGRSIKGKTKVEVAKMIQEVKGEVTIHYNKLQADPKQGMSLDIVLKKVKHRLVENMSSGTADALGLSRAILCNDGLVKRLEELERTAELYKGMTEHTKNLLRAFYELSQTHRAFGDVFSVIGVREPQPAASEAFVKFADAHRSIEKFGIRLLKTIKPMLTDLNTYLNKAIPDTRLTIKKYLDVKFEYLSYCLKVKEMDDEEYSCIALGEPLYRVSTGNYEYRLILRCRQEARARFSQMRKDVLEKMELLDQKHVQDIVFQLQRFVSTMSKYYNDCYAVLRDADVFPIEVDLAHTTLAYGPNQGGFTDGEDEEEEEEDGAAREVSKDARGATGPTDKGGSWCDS
Put plainly: Fluorescence polarization competition, substituted peptide libraries. Type of data set: binding. The settings on record: relative to HWLKV; tracer 5FAM-HWLKV 20 nM. The protocol:
Full length rat PICK1 (pET41) was prepared as described earlier (Madsen et al., 2005). In brief, PICK1 was expressed in BL21-DE3-pLysS cells and grown at 37° C., induced at OD600=0.6 with 1 mM Isopropyl β-D-1-thiogalactopyranoside (IPTG) and grown 16 hrs at 20° C. Cultures were harvested and re-suspended in 50 mM trisaminomethane (Tris), 125 mM NaCl, 2 mM Dithiothreitol (DTT, Sigma), 1% Triton X-100 (Sigma), 20 μg/mL DNAse 1 and ½ a tablet cOmplete protease inhibitor cocktail (Roche) pr. 1 L culture. The re-suspended pellets were frozen at −80° C. for later purification. The lysate was cleared by centrifugation (36,000×g for 30 min at 4° C.), and the supernatant was incubated with Glutathione-Sepharose 4B beads (GE Healthcare) for 2 hrs at 4° C. under gentle rotation and then centrifuged at 4,000×g for 5 min. The supernatant was removed and the beads were washed twice in 35 mL 50 mM Tris, 125 mM NaCl, 2 mM DTT and 0.01% Triton-X100. The beads were transferred to PD-10 Bio-Spine Chromatography columns (Bio-Rad) and washed with an additional 3 column volumes. Each column was sealed and 0.075 U/μL, Novagen® was added for cleavage 0/N at 4° C. under gentle rotation. PICK1 was eluted on ice and absorption at 280 nm was measured on TECAN plate reader or on a NanoDrop3000. The protein concentration was determined using lambert beers law (A=εcl), εA280PICK1=32320 (cm*mol/L)^−1.
The plate was incubated 20 min on ice in a black half-area Corning Black non-binding surface 96-well plate and the fluorescence polarization was measured directly on a Omega POLARstar plate reader using excitation filter at 488-nm and long pass emission filter at 535-nm.
In general terms: In fluorescence polarisation assays a small probe gives low polarisation when free and higher when bound to something large.

Regarding `CC(C)C[C@H](CN)CC(=O)O` [Pregabalin, reference compound], the “maximum reversal of mechanical response threshold” value in data set [1] is recorded as 84.7±10.5 % of baseline.

Regarding `CC(C)C[C@H](NC(=O)[C@H](Cc1c[nH]c2ccccc12)NC(=O)[C@H](Cc1c[nH]cn1)NC(=O)CCOCCOCCN(CCOCCOCCC(=O)N[C@@H](Cc1c[nH]cn1)C(=O)N[C@@H](Cc1c[nH]c2ccccc12)C(=O)N[C@@H](CC(C)C)C(=O)N[C@@H](CCCCN)C(=O)N[C@H](C(=O)O)C(C)C)C(=O)[C@H](CCCNC(=N)N)NC(=O)[C@H](CCCNC(=N)N)NC(=O)[C@H](CCCNC(=N)N)NC(=O)[C@H](CCC(N)=O)NC(=O)[C@H](CCCNC(=N)N)NC(=O)[C@H](CCCNC(=N)N)NC(=O)[C@H](CCCCN)NC(=O)[C@H](CCCCN)NC(=O)[C@H](CCCNC(=N)N)NC(=O)CNC(=O)[C@H](Cc1ccc(O)cc1)NC(=O)CCCC[C@@H]1SC[C@@H]2NC(=O)N[C@@H]21)C(=O)N[C@@H](CCCCN)C(=O)N[C@H](C(=O)O)C(C)C` [biotinylated Tat-NPEG4-(HWLKV)2], the Tmax in data set [2] is 30 min.

In the case of “EIRV (DAT-C5 variant) [4-mer peptide of combinatorial library]”, the “fold affinity change, combinatorial peptide library” value (“fold affinity change” for short) with purified PICK1 is listed as “optimal 4-mer sequences”.

Take “IIV [3-mer peptide of combinatorial library]”: the “fold affinity change” value with purified PICK1 was “optimal 3-mer sequences”.

Take “IRV [3-mer peptide of combinatorial library]”: the “fold affinity change” value with purified PICK1 is given as “optimal 3-mer sequences”.

For “NSVRV (DAT-C5 variant) [5-mer peptide of combinatorial library]”, the “fold affinity change” value with purified PICK1 is “optimal 5-mer sequences”.

As to “TSIRV (DAT-C5 variant) [5-mer peptide of combinatorial library]”, the “fold affinity change” value with purified PICK1 is “optimal 5-mer sequences”.

As for “YIIV (DAT-C5 variant) [4-mer peptide of combinatorial library]”, the “fold affinity change” value in the data set with purified PICK1 is “optimal 4-mer sequences”.
